Biological target: CRM1 (UniProt O14980)
Test: co-immunoprecipitation, immunoblot
Details: reference: ALKBH5 WT, EGF-treated; sites Y71

In the case of “ALKBH5 (from UniProt Q6P6C2) ALKBH5 Y71F, EGF-treated”, the “binding against the reference” value is reported as “stronger”.
